# Ends that are not written are not given here.
# T1: GIP(3-42) (Homo sapiens, UniProt P09681)
# T1 sequence (P09681 54-93): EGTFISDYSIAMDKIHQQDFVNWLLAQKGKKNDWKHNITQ
# T2: PEGylated N-terminus 13 amino acids of inactive GIP (GIP(3-15)) (also: PEGylated, site not given here)
# T2 construct: Immobilized for the ELISA; also called antigen (2) for measurement; PEGylated GIP(3-15)
# T2 peptide: EGTFISDYSIAMD
# T3: PEGylated N-terminus 15 amino acids of active GIP (GIP(1-15)) (also: PEGylated, site not given here)
# T3 construct: Immobilized for the ELISA; also called antigen (1) for measurement; PEGylated GIP(1-15)
# T3 peptide: YAEGTFISDYSIAMD
# T4: GIP(3-42) (inactive GIP)
# T4 peptide: T1 sequence (P09681 54-93)
# T5: GIP(1-42) (Homo sapiens, UniProt P09681)
# T5 sequence (P09681 52-93): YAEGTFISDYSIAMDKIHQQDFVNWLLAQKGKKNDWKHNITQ
# B1: anti-active GIP monoclonal antibody produced by hybridoma 9B9H5-B9 line (Production Example 1) (antibody, V domains shown)
# VH: QVQLQQPGAELVKPGASVKLSCKASGYTFTSFWMHWVIQRPGQGLEWIGEMNPSDGRTHFNEKFKTKATLTIDTSSNTAYMELNSLTSEDSAVYYCARRMEDWGQGTLVTVSA
# VL: DIKMTQSPSSMYASLGERVTITCKASQDINSYLGWFQQKPGKSPKTLIYGANRLVDGVPSRFSGSGSGQDYSLTISSLEYDDMGIYYCLQYDEFPLTFGAGTKLELKR
# notes: in the screening and cloning ELISA it was hybridoma culture supernatant; also called anti-active GIP antibody
# Experiments:
# [1] = tested on: C57BL/6J male mice fed high fat diet; test: Suppression of decrease in body temperature in mouse continuously taking in high fat diet; format: in vivo; conditions: in high fat diet for 26 weeks, measured at 34-week-old, compared to high fat diet control group
# Experimental: Seven-week-old C57BL/6J male mice (CLEA Japan, Inc.) were transferred (room temperature: 23° C., humidity: 55±10%, light period: 7:00 to 19:00) and were fed with food and water ad libitum. The mice were acclimated using CE-2 (CLEA Japan, Inc.) as food for 1 week and were then grouped such that the body weights of each group were equivalent to each other and were fed with a normal diet containing 5% lipid (normal diet group), high fat diet containing 30% lipid (triacylglycerol) (high fat diet group), high fat diet containing 0.4% 4-hydroxybenzoic acid (2-bromobenzylidene) hydrazide (4H2BH, produced by the method described in Ling, et al., J. Med. Chem. 44: 3141-9, 2001) (4H2BH addition group), or high fat diet containing diacylglycerol (JP-A-2006-342084) instead of 30% triacylglycerol (DAG substitution group) for 26 weeks (34-week-old). During the breeding period, the body weight was measured once a week, and the food intake amount was measured twice a week. During the breeding period, the intake of the food and water was free. A probe was inserted into the rectum of each mouse at 34-week-old to measure the body temperature (rectal temperature).
# (§1) The rectal temperature was measured with a digital rectal thermometer (NS-TC10, manufactured by NeuroScience, Inc.). […]
# [2] = tested on: leptin receptor deficient C57BLKS/J male mice (db/db mice); test: Chronic decrease in body temperature by GIP and suppression by anti-GIP antibody; format: in vivo, mouse; conditions: intraperitoneal every morning for 28 days, measured 1 to 2 hours after administration
# Experimental: (§2) Six-week-old leptin receptor deficient C57BLKS/J male mice (db/db mice, Oriental Yeast Co., Ltd.) were transferred (room temperature: 23° C., humidity: 55±10%, light period: 7:00 to 19:00) and were fed with food and water ad libitum. The food was CE-2 (CLEA Japan, Inc.), and the mice were acclimated for 2 weeks under the above-mentioned environment and were then used for testing.
# Mouse-derived GIP (manufactured by AnaSpec, Inc.) was dissolved in physiological saline at a concentration of 500 nM to give a GIP solution. Mouse-derived GIP (manufactured by AnaSpec, Inc.) and the anti-active GIP antibody produced in Production Example 1 were dissolved in physiological saline at concentrations of 500 nM and 0.1 mg/mL, respectively, and the resulting solution was incubated for 1 to 2 hours at room temperature to give a GIP-binding anti-GIP antibody solution.
# Physiological saline (control group), the GIP solution (5 nmol/kg body weight) (GIP administration group), or the GIP-binding anti-GIP antibody solution (GIP: 5 nmol/kg body weight, anti-GIP antibody: 1 mg/kg body weight) (GIP+anti-GIP antibody administration group) was intraperitoneally administered to mice (8-week-old) every morning (9:00 to 10:00 a.m.). […]
# as §1
# [3] = tested on: C57BLKS/J misty male mice (m/m mice); test: Acute decrease in body temperature (rectal temperature) by GIP; format: in vivo, mouse; conditions: 5 nmol/kg body weight intraperitoneal, 8-week-old m/m mice
# Experimental: as §2, with “Six-week-old” for “Six-week-old leptin receptor deficient”, “C57BLKS/J misty” for “C57BLKS/J”, “(m/m” for “(db/db”
# Mouse-derived GIP (manufactured by AnaSpec, Inc.) was dissolved in physiological saline at a concentration of 500 nM to give a GIP solution.
# Physiological saline (control group) or the GIP solution (5 nmol/kg body weight) (GIP administration group) was intraperitoneally administered to mice (8-week-old) in the light period (9:00 to 10:00 a.m.). Before the administration and 0.5, 2, 4.5, and 8 hours after the administration, a probe was inserted into the rectum of each mouse to measure the body temperature (rectal temperature).
# The rectal temperature was measured with a digital rectal thermometer (NS-TC10, manufactured by NeuroScience, Inc.). According to Jikken Dobutsu Handobukku (Handbook of Experimental Animals) (Yokendo CO. Ltd., published in 1983), each mouse was retained under no anesthesia, and the tip of a probe (RET-3 (19×0.7 mm shaft diameter), manufactured by Physitemp instruments, LLC) was then inserted into the rectum of the mouse by 0.5 to 1 cm to measure for 15 to 30 seconds. […]
# GIP(3-42) = biological target: T1, GIP(3-42); test: Cross-reactivity with inactive GIP by sandwich ELISA; format: binding; conditions: biotinylated antibody 1 μg/mL as detection antibody, GIP 8.2 to 2000 pg/mL
# Experimental: (§3) The reactivity between the monoclonal antibody prepared in Production Example 1 and active GIP was confirmed by ELISA. The amino group of the anti-active GIP monoclonal antibody was biotinylated with NH2 group biotinylation kit (manufactured by Dojindo Laboratories). ELISA was performed using the produced biotinylated anti-active GIP monoclonal antibody at 1 μg/mL instead of a detection antibody, GIP detection antibody (biotinylated anti-total GIP monoclonal antibody), included in Human (total) GIP ELISA kit (manufactured by EMD Millipore Corporation). A […] dilution series of GIP(1-42) or GIP(3-42) was prepared in 6 steps (8.2 to 2000 pg/mL) with a 2000 pg/mL solution as the highest concentration. By using an anti-total GIP monoclonal antibody (included in Human GIP (total) ELISA kit manufactured by EMD Millipore Corporation) as a capture antibody, the biotinylated anti-active GIP monoclonal antibody as a detection antibody, and a peroxidase-streptavidin conjugate for detection, sandwich ELISA was conducted to prepare a calibration curve with GIP concentration on the X-axis and 450 nm-590 nm absorbance on the Y-axis (FIG. 1).
# [4] = biological target: T2, PEGylated N-terminus 13 amino acids of …; test: ELISA on immobilized antigen, hybridoma culture supernatant
# Experimental: (§4) The reaction between the hybridoma culture supernatant and the antigen (1) and (2) for measurement was evaluated by ELISA using immobilized antigen (1) and (2), and hybridomas that are positive for the antigen (1) and negative for the antigen (2) were selected as anti-active GIP monoclonal antibody-producing hybridomas.
# [5] = biological target: T3, PEGylated N-terminus 15 amino acids of …; test: as above
# Experimental: as §4
# GIP(3-42) (inactive GIP) = biological target: T4, GIP(3-42) (inactive GIP); test: sandwich ELISA; anti-total GIP monoclonal antibody as capture, biotinylated anti-active GIP antibody at 1 ug/mL as detector
# Experimental: as §3, with “NH₂” for “NH2”
# GIP(1-42) = biological target: T5, GIP(1-42); test: Reactivity with active GIP by sandwich ELISA; format: binding; conditions: biotinylated antibody 1 μg/mL as detection antibody, GIP 8.2 to 2000 pg/mL
# Experimental: as §3
# [6] = tested on: C57BL/6J male mice (107-week-old); test: Suppression of decrease in body temperature by anti-GIP antibody in aged mouse; format: in vivo; conditions: aged C57BL/6J mice, 0.5 mg/kg intraperitoneal once a week for 8 weeks
# Experimental: Four-week-old C57BL/6J male mice (CLEA Japan, Inc.) were transferred (room temperature: 23° C., humidity: 55±10%, light period: 7:00 to 19:00) and were fed with food (D12450K, Research Diets, Inc.) and water ad libitum for 111 weeks.
# The anti-active GIP antibody produced in Production Example 1 was dissolved in physiological saline at a concentration of 0.05 mg/mL to give an anti-GIP antibody solution.
# Physiological saline (control group) or the anti-GIP antibody solution (0.5 mg/kg body weight) (anti-GIP antibody administration group) was intraperitoneally administered to C57BL/6J mice (107-week-old) once a week (9:00 to 10:00 a.m.). The administration period was 8 weeks, and the probe was inserted into the rectum of each mouse chronologically (at 2 to 4 weeks intervals) to measure the body temperature (rectal temperature).
# The rectal temperature was measured with a digital rectal thermometer (NS-TC10, manufactured by NeuroScience, Inc.). According to Jikken Dobutsu Handobukku (Handbook of Experimental Animals) (Yokendo CO. Ltd., published in 1983), each mouse was retained under no anesthesia, and the tip of a probe (RET-3 (19×0.7 mm shaft diameter), manufactured by Physitemp instruments, LLC) was then inserted into the rectum of the mouse by 0.5 to 1 cm to measure for 15 to 30 seconds.
# The analysis results were shown as the average value (Ave.)±standard error (SE). […]
molecule,measurement,setting,value
"O=C(NN=Cc1ccccc1Br)c1ccc(O)cc1 [4H2BH, 4-hydroxybenzoic acid (2-bromobenzylidene) hydrazide]",decrease in body temperature (rectal) due to high fat diet intake,[1],suppressed
"GIP: Mouse-derived GIP (gastric inhibitory polypeptide, manufactured by AnaSpec, Inc.) dissolved in physiological saline at 500 nM (YAEGTFISDYSIAMDKIRQQDFVNWLLAQRGKKSDWKHNITQ)",chronic change in body temperature (rectal) compared to the control group,[2],chronic decrease in the body temperature was observed
same,decrease in the body temperature (rectal) compared to the control group,[3]; after 2 hours,0.83 °C
same,decrease in the body temperature (rectal) compared to the control group,[3]; after 4.5 hours,0.81 °C
B1,cross-reactivity with GIP(3-42) (450 nm-590 nm absorbance),GIP(3-42),does not show cross-reactivity with GIP(3-42)
same,binding result,[4],no binding
same,binding result,[5],binds
same,binding result,GIP(3-42) (inactive GIP),no binding (tested: 2000 pg/mL (highest GIP concentration))
same,reactivity with GIP(1-42) (450 nm-590 nm absorbance),GIP(1-42),capable of specifically detecting GIP(1-42)
same,body temperature (rectal) compared to the control group and the non-administration group,[6],significantly high
same,decrease in the body temperature with aging,[6],suppression of a decrease in the body temperature with aging was observed
